Variants at the floor of the assay were thinned out.
B1: TPR 5TU (parent)
chain: GGAUCUUCUCGAUCUAACAAAAAAGACAAAUCUGCCACAAAGCUUGAGAGCAUCUUCGGAUGCAGAGGCGGCAGCCUUCGGUGGCGCGAUAGCGCCAACGUUCUCAACUAUGACACGCAAAACGCGUGCUCCGUUGAAUGGAGUUUAUCAUG

Variants of: B1
Assay: polymerase ribozyme fitness, log enrichment relative to wild type (log ratio); higher = more active; in vitro selection for triplet polymerase activity
How it was run: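 A heterodimeric triplet polymerase ribozyme had each of its subunits mutagenized by PCR into a library, which was transcribed. One round of in vitro selection, done in triplicate, annealed each library with a biotinylated primer, its partner subunit and triplets, then incubated it frozen at −7 °C before gel excision of extended constructs, streptavidin-bead capture and RT-PCR. Fitness is the logarithm of genotype enrichment relative to wild-type enrichment, based on Illumina sequencing of inputs and outputs and inverse-variance-weighted replicate averages. A base-2 logarithm is used, and genotypes were kept only with ≥10 input reads and ≥1 read per output.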

| Variant | polymerase ribozyme fitness (log ratio) |
| --- | --- |
| C14G A17C | -2.89 |
| U13G U44A G68C G88A C95A U144A | ≤ -4.2 |
| C14G A19C A22C U61A A91U C105G C108G C114U A120G | ≤ -4.2 |
| A12G C36U A37C G59C U102A C118G A120C U146A | ≤ -4.2 |
| A12G A22C U101G U127C | -1.93 |
| A12U A29C C87A G94U | ≤ -4.2 |
| A12G C75G A119C | -3.34 |
| A12G A16G U31A C125A U145C | -0.993 |
| A12U U55A | -0.315 |
| U13G C18U C27U C95U | -3.43 |
| U13A A24U G34A G94C G126C | -3.18 |
| C14A C105U | -0.869 |
| U13A A22C G50A G84A A121U | -2.93 |
| A12U G50A C85A C87U G133C | ≤ -4.2 |
| C14A A37U G84A C125U | -3.95 |
| A12G C36A U55G G71A C96G C116A U134G | ≤ -4.2 |
| C14G C96U U134C | -2.72 |
| U13G C32U G88C A97U | ≤ -4.2 |
| A12U A16G A40C U55A G81A C118G C129A | ≤ -4.2 |
| U13C A22C U53A C116A | 0.349 |
| C14G C32G C76A U139A | ≤ -4.2 |

| Variant | polymerase ribozyme fitness (log ratio) |
| --- | --- |
| U13A A17U U45C G50A G83C C87U U104G G140A | ≤ -4.2 |
| U13G G42C A49U G65A G71A G92A | -3.74 |
| C14G A23U G46U A66G G70A A91G C116G C131G | ≤ -4.2 |
| A12U A24G A49C C57U A73G G86U | ≤ -4.2 |
| C14G A19G A20C G117A G124C | -3.94 |
| C14A A26G G67A A73U G86C A121U C123G A138C U146A | ≤ -4.2 |
| C14A U53A C87G | ≤ -4.2 |
| C14A A41C C51U A64U C76A A89G C95A G128A A150U | ≤ -4.2 |
| U13C U56A C72U C93A C96U | -3.76 |
| A12U C36U | -2.21 |
| C14A A17C U31A C57U C96G | -3.28 |
| C14G C54U G68C C87U | ≤ -4.2 |
| U13G A23U A37C G83A C96U | ≤ -4.2 |
| A12U A17U C18U G46U C51U A52U C75A G84C G100U C105U C118G A120U U134A A137G | ≤ -4.2 |
| A12G A19G A41C C95U G126A | -1.94 |
| U13A A47U G86U C132U G140A | -3.17 |
| A12C C93U A120G | -0.829 |
| U13A A20G C63G A91U G136C | ≤ -4.2 |
| U13A A113U | -2.5 |
| A12U C38U C129G | ≤ -4.2 |
| A12C G59C C87A A107G A115U A150U | ≤ -4.2 |

| Variant | polymerase ribozyme fitness (log ratio) |
| --- | --- |
| A12G A52C G59A | -1.78 |
| C14G C85A | -3.74 |
| U13C G59U C93G A138G | ≤ -4.2 |
| U13A A47G U82G C95G | -3.73 |
| U13G A37U C76G G84U A107U C123U U139G | ≤ -4.2 |
| C14A C43A C51U C54G C93A U145C A150C | ≤ -4.2 |
| A12U A120C | -0.776 |
| U13C C14G G88A | -4 |
| A12U U55C A137C | -4.12 |
| U13G G83C C125G G133A U145G | ≤ -4.2 |
| U13G A47G G48A A89C C93U C99G | ≤ -4.2 |
| A12G C27G U55A A110G G143A U145G U148G | ≤ -4.2 |
| C14A A40U C87A G136C | ≤ -4.2 |
| A12G A20U A41C C57A A66U C69G A91U C129U | ≤ -4.2 |
| A12U A39U U55A G67U G86U C103U | ≤ -4.2 |
| U13G A28U A37C A41G C99U C129A U134C A150C | ≤ -4.2 |
| A12U A20C C36G A138C | -4.13 |
| A12U A41C | -0.744 |
| C14A G50A C87A A106U C108G A150C | ≤ -4.2 |
| U13G C93A G141U | -4.01 |
| C14A A20U A26C G84A G141A | ≤ -4.2 |

| Variant | polymerase ribozyme fitness (log ratio) |
| --- | --- |
| U13G G42A A49G U56A C57A G80A | ≤ -4.2 |
| A12G A28C C116A A147C | ≤ -4.2 |
| A12U A21C A52C C85U | -1.19 |
| C14G C54A C57A G62A U78A C85U G88A A115U | ≤ -4.2 |
| U13C C43A A73C G92U | ≤ -4.2 |
| A12U C14A C114G A119G | -3.37 |
| U13G A47U G50A C51U U55A G81C A137U C149A | ≤ -4.2 |
| C14G G34A G128A G141C | -3.91 |
| C14G C32A U61G A120C | ≤ -4.2 |
| U13A C32A G42A C75A C76U C87G A106C A138U G141C | ≤ -4.2 |
| A12U C57U C85G A115C G133U U139C | ≤ -4.2 |
| U13C A40G C43U C87U G128C U139A | ≤ -4.2 |
| C14A C72U G81U C95U | -2.42 |
| C14G C35A G74U G86A A120U | ≤ -4.2 |
| A12G C54A U55G G58C G92A A97U C125G G128U U135C A138G U139A U145G | ≤ -4.2 |
| C14A A29U C51A C96G A115C C118A G141A | ≤ -4.2 |
| A12U C18A C51A U55G C87U G94A G143U | ≤ -4.2 |
| A12G C57A G58A G81A C85U A91G A119G | -3.03 |
| A12U U13A A91G C93A U102A | ≤ -4.2 |
| A12U G126A | -0.204 |
| C14G A17C A22U U44A G83C C118A U134C | ≤ -4.2 |

— the RNAGym collection of RNA variant scans (doi:10.1073/pnas.2313332121)
